In patent US20240218079A1, “PLASMA KALLIKREIN ANTIBODIES AND USES THEREOF” (Astria Therapeutics, Inc., priority 2021, published 2024):

Tests used:
Thrombin a = experiment: cell-based or functional assay
Hepsin = experiment: cell-based or functional assay

Chain of DX-2930 (antibody) (VH): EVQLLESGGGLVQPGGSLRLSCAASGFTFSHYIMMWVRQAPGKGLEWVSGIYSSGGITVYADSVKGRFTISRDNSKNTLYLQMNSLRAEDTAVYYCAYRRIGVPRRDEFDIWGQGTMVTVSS
Chain of DX-2930 (antibody) (VL): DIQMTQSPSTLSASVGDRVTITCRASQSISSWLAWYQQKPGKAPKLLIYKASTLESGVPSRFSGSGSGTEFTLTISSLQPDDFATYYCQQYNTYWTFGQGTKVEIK

DX-2930 (antibody)
> 1000 nM: IC50, protease inhibition assay, fluorescent peptide substrate, Duplicate 1 (Thrombin a) | IC50, protease inhibition assay, fluorescent peptide substrate, Duplicate 2 (Thrombin a) | IC50, protease inhibition assay, fluorescent peptide substrate, Duplicate 1 (Hepsin) | IC50, protease inhibition assay, fluorescent peptide substrate, Duplicate 2 (Hepsin)
